# According to PMC11407943, “Cdc14 phosphatases use an intramolecular pseudosubstrate motif to stimulate and regulate catalysis” (The Journal of Biological Chemistry, 2024):
# Positions count from the first letter of the chain named. In names and notes the source's numbering stands.
# B1: ScCdc14^1-449: truncation of S. cerevisiae Cdc14 that retains the SLiCE motif (protein)
# chain: MRRSVYLDNTIEFLRGRVYLGAYDYTPEDTDELVFFTVEDAIFYNSFHLDFGPMNIGHLYRFAVIFHEILNDPENANKAVVFYSSASTRQRANAACMLCCYMILVQAWTPHQVLQPLAQVDPPFMPFRDAGYSNADFEITIQDVVYGVWRAKEKGLIDLHSFNLESYEKYEHVEFGDFNVLTPDFIAFASPQEDHPKGYLATKSSHLNQPFKSVLNFFANNNVQLVVRLNSHLYNKKHFEDIGIQHLDLIFEDGTCPDLSIVKNFVGAAETIIKRGGKIAVHCKAGLGRTGCLIGAHLIYTYGFTANECIGFLRFIRPGMVVGPQQHWLYLHQNDFREWKYTTRISLKPSEAIGGLYPLISLEEYRLQKKKLKDDKRVAQNNIEGELRDLTMTPPSNGHGALSARNSSQPSTANNGSNSFKSSAVPQTSPGQPRKGQNGSNTIEDINNN
# modifications: left off: 6xHis, N-terminal, state not stated
# B2: ScCdc14^P433A/K435A: SLiCE motif point mutant generated in ScCdc14^1-449 (protein)
# chain: B1 chain with P433A, K435A
# modifications: left off: 6xHis, N-terminal, state not stated
# B3: ScCdc14^S429E (protein, UniProt Q00684 1-551, looked up, variant S429E)
# Tyrosine-protein phosphatase …: MRRSVYLDNTIEFLRGRVYLGAYDYTPEDTDELVFFTVEDAIFYNSFHLDFGPMNIGHLYRFAVIFHEILNDPENANKAVVFYSSASTRQRANAACMLCCYMILVQAWTPHQVLQPLAQVDPPFMPFRDAGYSNADFEITIQDVVYGVWRAKEKGLIDLHSFNLESYEKYEHVEFGDFNVLTPDFIAFASPQEDHPKGYLATKSSHLNQPFKSVLNFFANNNVQLVVRLNSHLYNKKHFEDIGIQHLDLIFEDGTCPDLSIVKNFVGAAETIIKRGGKIAVHCKAGLGRTGCLIGAHLIYTYGFTANECIGFLRFIRPGMVVGPQQHWLYLHQNDFREWKYTTRISLKPSEAIGGLYPLISLEEYRLQKKKLKDDKRVAQNNIEGELRDLTMTPPSNGHGALSARNSSQPSTANNGSNSFKSSAVPQTEPGQPRKGQNGSNTIEDINNNRNPTSHANRKVVIESNNSDDESMQDTNGTSNHYPKVSRKKNDISSASSSRMEDNEPSATNINNAADDTILRQLLPKNRRVTSGRRTTSAAGGIRKISGSIKK
# B4: ScCdc14^1-374: catalytic domain alone lacking the SLiCE motif (protein)
# chain: MRRSVYLDNTIEFLRGRVYLGAYDYTPEDTDELVFFTVEDAIFYNSFHLDFGPMNIGHLYRFAVIFHEILNDPENANKAVVFYSSASTRQRANAACMLCCYMILVQAWTPHQVLQPLAQVDPPFMPFRDAGYSNADFEITIQDVVYGVWRAKEKGLIDLHSFNLESYEKYEHVEFGDFNVLTPDFIAFASPQEDHPKGYLATKSSHLNQPFKSVLNFFANNNVQLVVRLNSHLYNKKHFEDIGIQHLDLIFEDGTCPDLSIVKNFVGAAETIIKRGGKIAVHCKAGLGRTGCLIGAHLIYTYGFTANECIGFLRFIRPGMVVGPQQHWLYLHQNDFREWKYTTRISLKPSEAIGGLYPLISLEEYRLQKKKLKD
# modifications: left off: 6xHis, N-terminal, state not stated
# Legend:
# [1] = Catalytic efficiency (kcat/KM) on pooled phosphopeptides by LC-MS; conditions: 375 nM each pooled phosphopeptide, 30 °C, 10 to 40 min; for catalytic efficiency (kcat/KM) for high affinity substrates: enzyme 0.1–1 μM, at least four independent measurements
# Protocol: Cdc14 catalytic efficiencies toward a pooled set of phosphopeptide variants were measured by LC-MS exactly as described ([49]). […] Reactions were initiated by addition of Cdc14 enzymes (0.1–1 μM final concentration) in 200 μl Cdc14 reaction buffer and incubated at 30 °C for 10 to 40 min 60 μl aliquots were removed and mixed with an equal volume 5% formic acid at desired times to terminate the reactions. Peptides were desalted on C18 spin columns (Thermo Fisher Scientific) and dried by vacuum centrifugation prior to LC-MS analysis on an LTQ Orbitrap Velos mass spectrometer. Extracted ion chromatograms for each substrate and product peptide were generated and integrated using Skyline software ([65]) (https://skyline.ms/project/home/begin.view) and catalytic efficiency calculations from the data were performed as described ([28], [47]).
# [2] = cited from earlier work
# Source text: To experimentally characterize the SLiCE motif mechanism, we expressed and purified several recombinant ScCdc14 enzyme variants (Figs. 2A and S2A).
# [3] = Steady-state kinetics of Cdc14 enzyme variants toward DiFMUP
# Protocol: B, initial velocities as a function of increasing DiFMUP concentration were measured under steady-state conditions for the indicated ScCdc14 variants. […] Data are average values from at least three independent measurements. Error bars are SDs. Lines are best fits for the Michaelis–Menten equation. C, to better visualize differences in KM, all Vmax values from data in panel A were normalized to 1. D, top: the general PTP-catalyzed reaction scheme with associated rate constants ([50]), where E is enzyme, S is phosphorylated substrate, P is dephosphorylated product, Pi is inorganic phosphate, and E-Pi is the covalent phosphoenzyme intermediate. For simplicity, the reverse catalytic steps are omitted and considered negligible under our experimental conditions. Bottom: definitions of kcat and KM for enzymes following the two step PTP reaction mechanism ([47]). E, a representative presteady-state reaction progress graph for reaction of the indicated ScCdc14 enzyme variants with 200 μM DiFMUP, measured in a stopped flow spectrofluorometer. Data were fit with Equation 1 (see Experimental procedures) to generate rates of the burst phase (kburst) of the reaction. F, kburst was plotted as a function of substrate concentration from presteady-state kinetic measurements with the substrate DiFMUP and the indicated ScCdc14 enzyme variants. Data are averages of three independent measurements and error bars are SDs. Data were fit in GraphPad Prism with Equation 2 (Experimental procedures).
# D–E, steady-state kinetic analyses with hCdc14A enzyme variants toward DiFMUP as in Figure 2, B and C. […] In E, Vmax values from data in panel D were normalized to 1 to show differences in KM.
# Data from velocity versus substrate concentration plots were fit with the Michaelis–Menten equation in GraphPad Prism (https://www.graphpad.com/) to determine steady-state kinetic parameters kcat and KM. For trans peptide stimulation assays, DiFMUP was used at a single concentration well above the measured KM for each enzyme.
# [4] = Presteady-state (stopped-flow) kinetics of Cdc14 enzyme variants with DiFMUP; format: biochemical; conditions: 23 °C, 200 μM DiFMUP in representative ScCdc14 progress curve, compared to ScCdc14^1-449
# Protocol: SLiCE motif is boxed in gray.
# Presteady-state kinetic analysis was performed as described previously ([34]). Enzymes were exchanged into Cdc14 reaction buffer using a desalting column and flash-frozen in liquid nitrogen. Prior to use, aliquots were thawed and clarified at 16,000g for 5 min to remove any insoluble material and protein concentration was subsequently determined by Bradford assay. Presteady-state measurements were made by mixing enzyme and varying DiFMUP concentrations at 23 °C on an SFM-3000 stopped-flow instrument equipped with a MOS-200/M spectrophotometer (BioLogic) as described ([64]). The excitation wavelength was 390-nm and emission was selected using a 409-nm long pass filter (Semrock FF02-409/LP-25). A standard curve was generated by measuring the fluorescence of defined concentrations of the product DiFMU reconstituted in Cdc14 reaction buffer under identical conditions. Raw data were fit with Equation 1 in Prism:(1) Y=At+B(1−e^−bt)+C
# [5] = DiFMUP, pH 7.5, 30 °C, S429 phosphosite mutant series, printed "(Fig. 6)" for ScCdc141-449
molecule,measurement,setting,value
B1,catalytic efficiency (kcat/KM) for high affinity substrates,[1],indistinguishable
same,activity compared with full-length ScCdc14,[2],indistinguishable from full-length ScCdc14
same,kcat,[3]; [5],1.71 ± 0.24 s⁻¹
B2,catalytic efficiency (kcat/KM) for low affinity substrates,[1]; compared to ScCdc14^1-449,"modest, but consistent and statistically significant, increase in catalytic efficiency"
same,catalytic efficiency (kcat/KM) for high affinity substrates,[1],indistinguishable
same,postburst linear rate (primarily reflecting k3),[4],greatly reduced
same,kcat,[3]; pH 7.5,0.27 ± 0.03 s⁻¹
B3,kcat,[3]; [5],0.15 ± 0.01 s⁻¹
B4,decrease in kcat compared to ScCdc14^1-449,"[3]; DiFMUP, steady state",16 fold
